Results: patent publication US10912839B2, “Methods of treating cancer using compounds containing a vascular disrupting agent” (priority 2008, dated 2021)
Non-standard residues stand in square brackets, D forms with d. Residues, ends and D or L forms follow the SMILES beside them. No end group written: not given here. *: point of attachment. NH(Colchicin-10-yl) = COc1cc2c(c(OC)c1OC)-c1ccc(N*)c(=O)cc1[C@@H](NC(C)=O)CC2; FITC = O=C1OC2(c3ccc(O)cc3Oc3cc(O)ccc32)c2ccc(NC(=S)*)cc21; hPhe = N[C@@H](CCc1ccccc1)C(=O)O; Cit = NC(=O)NCCC[C@H](N)C(=O)O; βAla = NCCC(=O)O

Legend:
[1] = Ex vivo prodrug stability in normal mouse liver homogenate (LC/MS/MS); assay type: in vitro ADME; details: for half-life: mouse, tissue homogenate, murine liver homogenate, mean of four independent experiments, read-out: Liver t½
Source text: (§1) Liver was representative of all normal tissues analysed. (FIG. 5) • d.
(§2) Half lives are the mean taken from four independent experiments. Liver represent murine liver homogenate and tumour represents HT1080

[2] = Ex vivo prodrug metabolism in HT1080 tumour homogenate (LC/MS/MS); assay type: in vitro ADME, human; details: for half-life: human, tissue homogenate, HT1080 tumour homogenate, mean of four independent experiments, read-out: Tumour t½
Source text: as §1, §2

[3] = Tissue levels of prodrug and VDA2 after intraperitoneal dosing of HT1080 tumour-bearing mice; assay type: in vivo
Source text: as §1

[4] = Ex vivo prodrug stability in normal mouse plasma (LC/MS/MS); details: for stability in plasma and/or liver: alternative endcaps on MT-MMP prodrug
Source text: Prodrug cleavage and metabolism were detected using LC/MS/MS. • a.

HT1080 xenografts = assay: Dose response antitumour study, subcutaneous HT1080 xenografts; assay type: in vivo, Balb/C mice; details: for Growth delay: vs control
Method: (§3) ICT-2552 and ICT-2588 (‘prodrug’) were administered as a single dose via the intraperitoneal route to Balb/C mice bearing subcutaneous HT1080 xenografts. Each of the nine dosing groups comprised 8 mice. The anti-tumour effects of the compounds were assessed by determination of tumour volume and the existence of off-target toxicity was ascertained via monitoring mouse body weight.
(§4) The dosing groups evaluated ICT-2588 (prodrug) relative to the molar equivalent dose of ICT-2552 (warhead), and were: • 10% DMSO/oil (solvent control) • ICT-2588 at 37.5 mg/kg; 50.0 mg/kg; 62.5 mg/kg; 75.0 mg/kg • ICT-2552 at 7.5 mg/kg; 10.0 mg/kg; 12.5 mg/kg; 15 mg/kg Results

[5] = Off-target toxicity by mouse body weight in antitumour study; assay type: in vivo, Balb/C mice
Method: as §3, §4
The weight of all mice was within the tolerated loss of 15% of bodyweight, therefore the compounds are not classified as toxic to the whole body system.

[6] = ICT-2552 10.0 mg/kg single i.p.
[7] = ICT-2552 12.5 mg/kg single i.p.
[8] = ICT-2552 15.0 mg/kg single i.p.

## COc1cc2c(c(OC)c1OC)-c1ccc(NC(=O)[C@H](Cc3ccc(O)cc3)NC(=O)[C@H](CC(C)C)NC(=O)[C@H](Cc3ccc(O)cc3)NC(=O)[C@H](CCc3ccccc3)NC(=O)CNC(=O)[C@H](CCCNC(N)=O)NC(=O)[C@@H]3CCCN3C(=O)[C@H](CCC(=O)O)NC(=O)CCNC(=S)Nc3ccc4c(c3)C(=O)OC43c4ccc(O)cc4Oc4cc(O)ccc43)c(=O)cc1[C@@H](NC(C)=O)CC2 [Prodrug-1] ({FITC-βAla}-EP[Cit]G[hPhe]YLY-{NH(Colchicin-10-yl)})
[1]; normal mouse liver homogenate ex vivo
  stability in liver homogenate: stable
[2]; HT1080 xenograft homogenate ex vivo
  metabolism in tumour homogenate: metabolised
[3]; 24 hours
  prodrug level after 24 hours post-dosing: not detectable
[3]; HT1080 tumour
  VDA2 levels in tumour following prodrug administration: detected at high levels
[3]; HT1080 tumour-bearing mice
  prodrug accumulation in tissues: accumulated and was detected in all tissues analysed
  site of highest prodrug levels: Highest prodrug-1 levels were observed in the tumour
[3]; normal tissues
  VDA2 levels in normal tissues following prodrug administration: detectable at low levels
[3]; normal tissues, 24 hours
  VDA2 in normal tissues after 24 hours post-dosing: undetectable
[3]; tumour, 24 hours
  VDA2 in tumour after 24 hours post-dosing: still detectable at high levels
[4]; normal mouse plasma ex vivo
  stability in plasma: stable

## COc1cc2c(c(OC)c1OC)-c1ccc(NC(=O)[C@H](Cc3ccc(O)cc3)NC(=O)[C@H](CC(C)C)NC(=O)[C@H](C)NC(=O)[C@H](CCc3ccccc3)NC(=O)CNC(=O)[C@H](CCCNC(N)=O)NC(=O)[C@H](CO)NC(=O)[C@H](CCCNC(=N)N)NC(=O)CCNC(=S)Nc3ccc4c(c3)C(=O)OC43c4ccc(O)cc4Oc4cc(O)ccc43)c(=O)cc1[C@@H](NC(C)=O)CC2 [ICT3053] ({FITC-βAla}-RS[Cit]G[hPhe]ALY-{NH(Colchicin-10-yl)})
[1]
  half-life: 76 min
[2]
  half-life: 17 min

## COc1cc2c(c(OC)c1OC)-c1ccc(NC(=O)[C@H](Cc3ccc(O)cc3)NC(=O)[C@H](CC(C)C)NC(=O)[C@@H]3CCCN3C(=O)[C@H](CCc3ccccc3)NC(=O)CNC(=O)[C@H](CCCNC(N)=O)NC(=O)[C@H](CO)NC(=O)[C@H](CCCNC(=N)N)NC(=O)CCNC(=S)Nc3ccc4c(c3)C(=O)OC43c4ccc(O)cc4Oc4cc(O)ccc43)c(=O)cc1[C@@H](NC(C)=O)CC2 [ICT3097] ({FITC-βAla}-RS[Cit]G[hPhe]PLY-{NH(Colchicin-10-yl)})
[1]
  half-life: 110 min
[2]
  half-life: 24 min

## COc1cc2c(c(OC)c1OC)-c1ccc(NC(=O)[C@H](Cc3ccc(O)cc3)NC(=O)[C@H](CC(C)C)NC(=O)[C@H](CC(N)=O)NC(=O)[C@H](CCc3ccccc3)NC(=O)CNC(=O)[C@H](CCCNC(N)=O)NC(=O)[C@H](CO)NC(=O)[C@H](CCCNC(=N)N)NC(=O)CCNC(=S)Nc3ccc4c(c3)C(=O)OC43c4ccc(O)cc4Oc4cc(O)ccc43)c(=O)cc1[C@@H](NC(C)=O)CC2 [ICT3078] ({FITC-βAla}-RS[Cit]G[hPhe]NLY-{NH(Colchicin-10-yl)})
[1]
  half-life: 76 min
[2]
  half-life: 11 min

## Quinic acid+2×D-Serine: conjugate based on MT-MMP prodrug (SEQ ID NO: 4) with quinic acid+2×D-Serine endcap (RS[Cit]G[hPhe]YLY; not fully specified (N-terminus); also: quinic acid + 2×D-Ser endcap, end not given here)
[4]
  stability in plasma and/or liver: insufficiently stable

## COc1cc2c(c(OC)c1OC)-c1ccc(NC(=O)[C@H](Cc3ccc(O)cc3)NC(=O)[C@H](CC(C)C)NC(=O)[C@H](CC(=O)O)NC(=O)[C@H](CCc3ccccc3)NC(=O)CNC(=O)[C@H](CCCNC(N)=O)NC(=O)[C@H](CO)NC(=O)[C@H](CCCNC(=N)N)NC(=O)CCNC(=S)Nc3ccc4c(c3)C(=O)OC43c4ccc(O)cc4Oc4cc(O)ccc43)c(=O)cc1[C@@H](NC(C)=O)CC2 [ICT3055] ({FITC-βAla}-RS[Cit]G[hPhe]DLY-{NH(Colchicin-10-yl)})
[1]
  half-life: 67 min
[2]
  half-life: 7 min

## COc1cc2c(c(OC)c1OC)-c1ccc(N)c(=O)cc1[C@@H](NC(C)=O)CC2 [ICT-2552, azademethylcolchicine]
HT1080 xenografts; ICT-2552 7.5 mg/kg single i.p.
  Mean time to RTV2: 4.0 days
  Median time RTV2: 3.8 days
  Growth delay: 1.6 days
HT1080 xenografts; [6]
  Mean time to RTV2: 4.4 days
  Median time RTV2: 4.2 days
  Growth delay: 2.0 days
HT1080 xenografts; [7]
  Mean time to RTV2: 4.5 days
  Median time RTV2: 4.7 days
  Growth delay: 2.5 days
HT1080 xenografts; [8]
  Mean time to RTV2: 4.1 days
  Median time RTV2: 4.1 days
  Growth delay: 1.9 days
HT1080 xenografts; all evaluated doses
  delay in tumour growth: significant delay in tumour growth
HT1080 xenografts; all tested dose levels
  tumour response: Tumour responses were observed
[5]; ICT-2552 7.5 mg/kg
  Maximum % weight loss: 3%
  day of maximum weight loss: 4 days
[5]; ICT-2552 10.0 mg/kg
  Maximum % weight loss: 6 (6) %
  day of maximum weight loss: 6 (6) day
[5]; ICT-2552 12.5 mg/kg
  Maximum % weight loss: 6%
  day of maximum weight loss: 1 days
[5]; ICT-2552 15.0 mg/kg
  Maximum % weight loss: 5%
  day of maximum weight loss: 1 days

## COc1cc2c(c(OC)c1OC)-c1ccc(NC(=O)[C@H](Cc3ccc(O)cc3)NC(=O)[C@H](CC(C)C)NC(=O)[C@H](CC(C)C)NC(=O)[C@H](CCc3ccccc3)NC(=O)CNC(=O)[C@H](CCCNC(N)=O)NC(=O)[C@H](CO)NC(=O)[C@H](CCCNC(=N)N)NC(=O)CCNC(=S)Nc3ccc4c(c3)C(=O)OC43c4ccc(O)cc4Oc4cc(O)ccc43)c(=O)cc1[C@@H](NC(C)=O)CC2 [ICT3080] ({FITC-βAla}-RS[Cit]G[hPhe]LLY-{NH(Colchicin-10-yl)})
[1]
  half-life: 134 min
[2]
  half-life: 48 min

## COc1cc2c(c(OC)c1OC)-c1ccc(NC(=O)[C@H](Cc3ccc(O)cc3)NC(=O)[C@H](CC(C)C)NC(=O)[C@H](Cc3ccc(O)cc3)NC(=O)[C@H](CCc3ccccc3)NC(=O)CNC(=O)[C@H](CCCNC(N)=O)NC(=O)[C@H](CO)NC(=O)[C@H](CCCNC(=N)N)NC(=O)[C@@H](CO)NC(=O)[C@@H](CO)NC(=O)[C@H](N)CO)c(=O)cc1[C@@H](NC(C)=O)CC2 [3×D-Serine] (H-[dS][dS][dS]RS[Cit]G[hPhe]YLY-{NH(Colchicin-10-yl)})
[4]
  stability in plasma and/or liver: insufficiently stable

## COc1cc2c(c(OC)c1OC)-c1ccc(NC(=O)[C@H](Cc3ccc(O)cc3)NC(=O)[C@H](CC(C)C)NC(=O)[C@H](CO)NC(=O)[C@H](CCc3ccccc3)NC(=O)CNC(=O)[C@H](CCCNC(N)=O)NC(=O)[C@H](CO)NC(=O)[C@H](CCCNC(=N)N)NC(=O)CCNC(=S)Nc3ccc4c(c3)C(=O)OC43c4ccc(O)cc4Oc4cc(O)ccc43)c(=O)cc1[C@@H](NC(C)=O)CC2 [ICT3054] ({FITC-βAla}-RS[Cit]G[hPhe]SLY-{NH(Colchicin-10-yl)})
[1]
  half-life: 66 min
[2]
  half-life: 9 min
